Test system: thrombi in the left circumflex (LCX) coronary artery
Assay: Lysis of coronary artery thrombi by TAFIa inhibitor in conjunction with t-PA
Type: in vivo, dogs
Description: The study was designed with 4 groups (8 dogs/group): • (i) aspirin pre-treatment/vehicle infusion; • (ii) no pre-treatment/vehicle infusion; • (iii) no pre-treatment/TAFIa inhibitor; and • (iv) aspirin pre-treatment/TAFIa inhibitor.
Thirty minutes after initiating vehicle or compound infusion a continuous electrical current was delivered to the lumen of the left circumflex (LCX) coronary artery to cause endothelial damage and stimulate the production of a thrombus. Thrombi were allowed to mature for 1 hour prior to attempting to lyse the thrombus and cause vessel reperfusion with t-PA. A total of 4 bolus injections of t-PA (each 0.45 mg/kg i.v.) were given sequentially at 15 minute intervals. Blood flow through the coronary artery was then monitored for a further 2 hours so as to assess vessel patency. Time to vessel occlusion, and reperfusion were measured and the quantity and quality of blood flow analysed post-vessel re-perfusion. In addition, the effect of treatment on surgical bleeding, activated clotting time, cutaneous bleeding and platelet aggregation was also assessed.

B1: tPA: recombinant tissue plasminogen activator (tPA), a profibrinolytic antithrombotic (protein, UniProt P00750 36-562, looked up)
Tissue-type plasminogen …: SYQVICRDEKTQMIYQQHQSWLRPVLRSNRVEYCWCNSGRAQCHSVPVKSCSEPRCFNGGTCQQALYFSDFVCQCPEGFAGKCCEIDTRATCYEDQGISYRGTWSTAESGAECTNWNSSALAQKPYSGRRPDAIRLGLGNHNYCRNPDRDSKPWCYVFKAGKYSSEFCSTPACSEGNSDCYFGNGSAYRGTHSLTESGASCLPWNSMILIGKVYTAQNPSAQALGLGKHNYCRNPDGDAKPWCHVLKNRRLTWEYCDVPSCSTCGLRQYSQPQFRIKGGLFADIASHPWQAAIFAKHRRSPGERFLCGGILISSCWILSAAHCFQERFPPHHLTVILGRTYRVVPGEEEQKFEVEKYIVHKEFDDDTYDNDIALLQLKSDSSRCAQESSVVRTVCLPPADLQLPDWTECELSGYGKHEALSPFYSERLKEAHVRLYPSSRCTSQHLLNRTVTDNMLCAGDTRSGGPQANLHDACQGDSGGPLVCLNDGRMTLVGIISWGLGCGQKDVPGVYTKVTNYLDWIRDNMRP
- injured vessels patent at the end of the experiment (8 dogs/group, all groups received t-PA): 2/8
- blood flow post-reperfusion (FIG. 1) (dogs, t-PA 4 x 0.45 mg/kg i.v. boluses, comparison of treatment groups): superior to the combination of tPA and aspirin

Source: US6949577B2, “Pharmaceuticals” (Pfizer, Inc., priority 2000, dated 2005)
